In publication PMC4833398:

B1: bNAb CH01 (antibody, V domains shown)
VH: EVQLVESGANVVRPGGSLRLSCKASGFIFENFGFSWVRQAPGKGLQWVAGLNWNGGDTRYADSVKGRFRMSRDNSRNFVYLDMDKVGVDDTAFYYCARGTDYTIDDAGIHYQGSGTFWYFDLWGRGTLVSVSS
VL: EIVLAQSPGTLSLSPGERATLSCRASHNVHPKYFAWYQQKPGQSPRLLIYGGSTRAAGIPGKFSGSGSGTDFTLTISRVDPEDFAVYYCQQYGGSPYTFGQGTKVEIK
B2: bNAb PG9 (antibody, V domains shown)
VH: QRLVESGGGVVQPGSSLRLSCAASGFDFSRQGMHWVRQAPGQGLEWVAFIKYDGSEKYHADSVWGRLSISRDNSKDTLYLQMNSLRVEDTATYFCVREAGGPDYRNGYNYYDFYDGYYNYHYMDVWGKGTTVTVSS
VL: QSALTQPASVSGSPGQSITISCNGTSNDVGGYESVSWYQQHPGKAPKVVIYDVSKRPSGVSNRFSGSKSGNTASLTISGLQAEDEGDYYCKSLTSTRRRVFGTGTKLTVL

Legend:
[1] = biological target: 1VH8-scaffolded V1V2 from HIV-1 strain CAP256-SU (trimeric scaffold); assay: crystal structure
[2] = biological target: these trimeric scaffolded V1V2s (1VH8- and 4F2K-scaffolded), expressed and purified in GnTI- cells; assay: SPR

Row | Molecule | stoichiometry N [1] | Kd [2] [µM]
1 | 1VH8-scaffolded V1V2 from HIV-1 strain CAP256-SU (trimeric scaffold) | 3 | –
2 | B1 | – | 20 to 50
3 | B2 | – | 0.024 to 0.5
